Test results reported in patent publication US10654925B2, “Anti-marinobufagenin antibodies and uses thereof” (priority 2018, dated 2020).

Key:
[1] = test system: human umbilical cord venous endothelial cells (HUVEC); experiment: Reversal of MBG inhibition of HUVEC cell proliferation (3H-thymidine); type: cell-based; conditions: MBG 2 nM, antibody 2.5-10 μg/mL, 48 hr; FIG. 3b
Description: MBG (2 nM) was incubated with an antibody (20 μg/mL in FIG. 3a with human anti-MBG mAbs, or varying concentrations (2.5-10 μg/mL) in FIG. 3b with humanized anti-MBG mAbs) prior to addition to cultured human umbilical cord venous endothelial cells (HUVEC). After 48 hr, DNA synthesis was assessed by incorporation of ^3H-thymidine.
HUVEC cells in endothelial cell growth medium were plated onto 96-well plates. The next day, the cells were pretreated with various antibodies (2.5-20 μg/mL) and then incubated with 2 nM MBG for 48 hr. [^3H]-Thymidine was added to each well. [^3H]-Thymidine-labeled DNA was assayed by harvesting the cells and assaying for ^3H using a PerkinElmer Wallac Tailux liquid scintillation counter. […] Means were tested for significance using Student's t-test.

[2] = test system: Na^+K^+-ATPase (NKA); experiment: Na^+K^+-ATPase activity (Malachite Green Phosphate Assay); type: biochemical, rat; conditions: anti-MBG antibodies 1-100 μg/mL; FIG. 4
Description: Na^+K^+-ATPase (NKA) was purified from rat heart. The NKA was collected as the sarcolemmal/particulate (SLP) fraction and frozen.
Na^+K^+-ATPase activity was measured as follows: aliquots of SLP were mixed with Reaction Buffer (200 mM Tris-HCl, pH 7.5, 200 mM NaCL, 30 mM MgCl2, 60 mM KCl, 10 mM EGTA, 100 μg/mL PMSF, 2 μg/mL pepstatin A, and 2 μg/mL aprotinin). Reactions were performed with or without MBG and with or without anti-MBG antibodies (1-100 μg/mL). Ouabain was used as positive control for NKA inhibition. Tubes were prewarmed, and ATP was added. Reactions were stopped and were placed on ice.
Phosphate was assayed using the Malachite Green Phosphate Assay. Phosphate standard or sample was added to each well of a 96-well plate, followed by Reagent A. Reagent B was added, with mixing and incubation. OD was then read at 630 nm in a microplate spectrophotometer.

B1: H3L2: humanized anti-MBG antibody, VH H3 (SEQ ID NO: 11) with VL L2 (SEQ ID NO: 13) (antibody, V domains shown)
VH: EVQLQESGPGLVKPSETLSLTCTVSGDSITSGYWNWIRQPPGKGLEYMGYISYSGTTYYNPSLKSRITISRDTSKNQYSLKLSSVTAADTAVYYCARARYGYGFDYWGQGTLVTVSS
VL: DVVMTQSPLSLPVTLGQPASISCRSSQSIVHSNRNTYLEWYQQRPGQSPRLLIYKVSNRFSGVPDRFSGSGSGTDFTLKISRVEAEDVGVYYCFQGSHVPLTFGGGTKVEIK
modifications: Humanized VH sequence; Humanized VL sequence
- MBG inhibition of HUVEC cell proliferation, humanized mAbs [1]: significantly reduced
- inhibitory effect of MBG on NKA in presence of antibody [2]: reduce the inhibitory effect of MBG on NKA
